Data published in patent US11679121B2, “Morpholino oligonucleotides useful in cancer treatment” (United States Government As Represented By The Department …, priority 2018, dated 2023).
Entries after “also recorded” stand apart in the source; their conditions may differ.

Assays:
MGMT [1] = assay: Western blot of MGMT expression in tumor cell lines after scrape-loading or transfection-agent delivery of AMONs; assay type: cell-based, human
Method: The ability of each of three AMONs (SEQ ID NO: 1, SEQ ID NO: 2, and SEQ ID NO: 3) to inhibit MGMT expression in tumor cell lines was assessed. Three MGMT expressing solid tumor cell lines (T98G Glioma, H460 and A549 non-small-cell-lung cancer cell lines) were transduced with AMONs using a scrape-loading technique (Partridge M et al, Antisense Nucleic Acid Drug Dev 6, 169-175 (1996); incorporated by reference herein). […] This was replicated in H460 and A549 NSCLC lines.
[…] transfection agents were also used to introduce the AMONs into the cells and produced similar results (FIG. 1B). MGMT silencing was not achieved when cells were exposed to AMONS without scrape-loading or liposomal transfection agents (controls).
Cells were maintained at 37° C. and in an atmosphere containing 5% CO2. Three MGMT antisense oligonucleotide sequences: SEQ ID NO: 1-5′-[…]-3′; SEQ ID NO: 2-5′-[…]-3′; SEQ ID NO: 3-5′-[…]-3′ and one non-specific control sequence: SEQ ID NO: 4-5′-[…]-3′ were synthesized and purchased from Gene Tools, LLC (Philomath, Oreg., USA). Mouse anti-tubulin antibody (T9026) was purchased from Sigma (St. Louis, Mo., USA). Anti-MGMT (#2739), caspase 3 (#9662) and phospho-p53 (Ser15) (#9284) antibodies were purchased from Cell Signaling (Danvers, Mass., USA). Mouse anti-dynamin II (sc-166526) monoclonal antibody was purchased from Santa Cruz Biotechnology (Santa Cruz, Calif., USA).
Delivery of MGMT-morpholino in vitro into the cancer cells: Scrape delivery: 10^6 cancer cells were seeded on a 10-cm culture plate. The culture plate was placed on a flat surface and the cells scraped off the surface with a sterile cell scraper. Different doses or combinations of MGMT-morpholinos were added to the cells. Scraped cell suspensions were pipetted up and down twice and transferred to another culture plate.
Transfection agent delivery: 10^6 cancer cells were seeded in 10-cm culture plate. Cells were treated with transfection agent DharmaFECT (GE Dharmacon; Lafayette, Colo., USA) and MGMT-morpholinos mixture (1:1; v/v).
(§1) Cell viability assay and western blot analyses: Cell viability and proliferation was measured using the WST-1 Proliferation Assay Kit from Chemicon International Inc. (Temecula, Calif.). Cells or tissues were harvested and then washed with ice-cold PBS twice before the addition of RIPA lysis buffer containing protease and phosphatase inhibitors. Protein concentration was quantified using the Bio-Rad method. Equal amounts of protein were loaded into each well and separated by 7.5 or 12% SDS-PAGE gel followed by transfer onto polyvinylidene difluoride membranes (BioRad, Richmond, Calif.). Membranes were blocked using 5% nonfat dry milk or 2% bovine serum albumin (BSA) in PBS-T. The blots were then incubated with primary antibodies (1:200-1:1,000) overnight at 4° C. Secondary antibody (1:5,000; Cell signaling technology, Danvers, Mass.) was incubated for 2 h at room temperature. Immunoblots were developed using the chemiluminescence detection system (Thermo Scientific, Waltham, Mass.) according to the manufacturer's protocol and autoradiography. Quantification of immunoblotting signal of respective proteins was performed using UN-SCAN-IT Gel software (Silk Scientific, Inc., Orem, Utah).

MGMT [2] = assay: Western blot of MGMT expression after ionizing-radiation-enhanced delivery of AMONs, without scrape-loading or transfection agents; assay type: cell-based, human
Method: The ability of ionizing radiation to enhance the cytosolic delivery of AMONs in T98G glioma cell lines and suppress MGMT expression was assessed. T98 G cells were exposed to AMON SEQ ID NO: 2 alone, SEQ ID NO: 3 alone, or the combination of SEQ ID NO: 1, SEQ ID NO: 2 and SEQ ID NO: 3, one hour after exposure to 1 Gy of ionizing radiation. […] As with the use of scrape loading and lysosomal transfection agents, the inhibition of expression with radiation enhanced delivery of AMONS was transient, with peak inhibition at 3 days and restoration of MGMT expression by 7 days. Based on these findings a combination of sequences 1, 2 and 3 were used for further experiments.
To determine the optimal timing for exposure to AMON with respect to exposure to radiation, T98G cell lines were exposed to AMONs 2 hours and 1 hour before radiation as well as 1 and 24 hours after radiation exposure (FIG. 2B). The best inhibition was observed when cells were exposed to AMON 24 hours after radiation. This time line was adopted for further experiments. Different tumor cell lines required different doses of radiation to enhance delivery of AMON. Knockdown could be achieved in T98G cell lines at 1 Gy while H460 and A549 cell lines required exposure to 6-12 Gy for best results with no inhibition at lower doses of ionizing radiation (FIG. 2C).
Radiation delivery: cell culture: 10^6 cancer cells were exposed to different doses of radiation (0.5-12 Gy) at room temperature using a Philips gamma chamber (Philips Medical Systems, Andover, Mass.). After irradiation, cells were treated with mixtures of MGMT-morpholinos (SEQ ID NO: 1, SEQ ID NO: 2, SEQ ID NO: 3=1:1:1; v/v/v) at different time points and at a final concentration of 15 μM.
as §1

T98G cells = assay: Temozolamide cytotoxicity after radiation and AMONs (Western blot of phosphorylated-p53 and caspase 3); assay type: cell-based, human; details: for Susceptibility of cells to temozolamide (phosphorylated-p53, caspase 3): T98G, AMONs 1 day after 1 Gy, 75 or 150 μg/ml temozolamide two days later, lysates 1 and 4 days, FIG. 3
Method: FIG. 3 is a flow chart of an experimental model that includes treatment of cells with radiation, morpholino oligonucleotides of SEQ ID NO: 1, SEQ ID NO: 2, and SEQ ID NO: 3, and 75 or 150 μg/ml temozolamide as indicated.
MGMT expressing glioma cell lines such as T98G are known to be resistant to the cytotoxic effects of temozolomide (Yoshino A et al, Int J Oncol 36, 1367-1377 (2010); incorporated by reference herein). AMONs were administered 1 day after exposure of the T98G cells to 1 Gy of radiation and 75 or 150 μg/ml temozolamide administered two days after administration of the AMONs. Whole cell lysates were then collected 1 and 4 days after exposure to the temozolamide and a Western blot using antibodies specific for the indicated proteins performed.
as §1

T98G = details: Yoshino A et al 2010; cited from earlier work
MGMT [3] = assay: Subcutaneous H460 xenograft tumors in athymic nude rats: local radiation plus iv AMON, Western blot of MGMT in tumor lysates; assay type: in vivo, human
Method: Due to the inconsistent growth of intracranial T98G cell lines, subcutaneous H460 NSCCL tumors in athymic nude rats were studied. 2.5×10^7 H460 cells were subcutaneously injected in each of their hind limbs of 6 animals. When the tumor reached 10 mm in diameter, a single dose of 5 Gy of ionizing radiation was delivered to the tumor field. AMON was administered intravenously (iv) through the femoral vein 24 hours after radiation. Tumors were harvested 3 days after exposure to AMONs.
Delivery of MGMT-morpholino in vivo: Female (200-250 g) nude (mu/rnu) and heterozygous (rnu/wt) rats were selected from the breeding colony maintained in the animal facility. For subcutaneous tumor model, a total of 2.5×10^7 cells were mixed (ratio 1:1; v/v) with Matrigel Basement Membrane Matrix (BD Biosciences, Bedford, Mass.), and the mixture was injected subcutaneously into both left and right hind legs. At d 7 after inoculation, right SQ tumor was exposed to single dose of radiation (5 Gy) with shielding the rest of body using a Philips gamma chamber (Philips Medical Systems, Andover, Mass.), and left SQ tumor of the same animal without radiation was served as control. A total of 30 mM MGMT-morpholinos SEQ ID NO: 1, SEQ ID NO: 2, SEQ ID NO: 3=1:1:1; v/v/v) was administered intravenously 24 h after irradiation. Tissues (SQ tumors, brain, liver, spleen and kidney) were harvested 3 days after morpholinos and subjected to further protein and DNA analysis.
Cell viability assay and western blot analyses: Cell viability and proliferation was measured using the WST-1 Proliferation Assay Kit from Chemicon International Inc. (Temecula, Calif.). Cells or tissues were harvested and then washed with ice-cold PBS twice before the addition of RIPA lysis buffer containing protease and phosphatase inhibitors. Protein concentration was quantified using the Bio-Rad method. […] Quantification of immunoblotting signal of respective proteins was performed using UN-SCAN-IT Gel software (Silk Scientific, Inc., Orem, Utah).

MGMT gene = assay: MGMT-gene methylation status of subcutaneous tumors by pyrosequencing; assay type: in vivo, human; details: after implantation, radiation or AMONs
Method: Measurement of MGMT DNA methylation status: Subcutaneous xenograft tumor DNA was isolated using DNeasy Blood & Tissue Kit from Qiagen International (Germantown, Md., USA). In order to assure the quality and purity of DNA samples, the ratio of A260/A280 was determined and recorded samples was above 1.9. The percentage methylation status of MGMT DNA at CpG islands in samples were measured at using pyrosequening.

[4] = T98G cells, scrape-loading and liposomal transfection agents
[5] = T98G cells, scrape-loading, FIG. 1A
[6] = T98G cells, AMON one hour after 1 Gy ionizing radiation, lysates 3 and 7 days, FIG. 2A

Molecule: 5′-ATTCCTTCACGGCCAGTCCTT-3′ (morpholino, chemistry not fully specified) [SEQ ID NO: 3]
- Inhibition of MGMT expression (Western blot) (MGMT [1]; T98G cells, scrape delivery or lipofectamine/liposomal transfection, lysates 3 and 7 days after treatment, FIG. 1C): transient; also recorded: inhibition of MGMT
- Time of best inhibition of MGMT expression (MGMT [1]; [4]): 3 days
- Time of restoration of MGMT expression (MGMT [1]; [4]): ≤ 7 days
- Inhibition of MGMT expression (Western blot) (MGMT [1]; [5]): most effective in silencing MGMT expression; also recorded: inhibition of MGMT expression
- Inhibition of MGMT expression (Western blot) (MGMT [2]; [6]): inhibition of MGMT

Molecule: 5′-TTCCATAACACCTGTCTGGTT-3′ (morpholino, chemistry not fully specified) [SEQ ID NO: 2]
- Inhibition of MGMT expression (Western blot) (MGMT [1]; [5]): most effective in silencing MGMT expression; also recorded: inhibition of MGMT expression

Molecule: Cn1nnc2c(C(N)=O)ncn2c1=O [temozolomide, reference compound]
- Dose dependence of enhanced cytotoxic effects (T98G cells; T98G after 1 Gy and AMONs, 75 and 150 μg/mL): dose dependent
- Cytotoxic effects on MGMT expressing glioma cell lines (T98G): resistant

Molecule: SEQ ID NO: 2 and SEQ ID NO: 3: combination of morpholino oligonucleotides of SEQ ID NO: 2 and SEQ ID NO: 3 (chain 1 TTCCATAACACCTGTCTGGTT; chain 2 ATTCCTTCACGGCCAGTCCTT; morpholino, chemistry not fully specified)
- Inhibition of MGMT expression (Western blot) (MGMT [2]; [6]): inhibition of MGMT

Molecule: 5′-TTTCGTGCAGACCCTGCTCTT-3′ (all phosphorodiamidate morpholino (PMO)) [SEQ ID NO: 1]
- Inhibition of MGMT expression (Western blot) (MGMT [1]; [5]): inhibition of MGMT expression

B1: combination of SEQ ID NO: 1, SEQ ID NO: 2 and SEQ ID NO: 3: mixture of MGMT-morpholinos SEQ ID NO: 1, SEQ ID NO: 2, SEQ ID NO: 3 = 1:1:1 v/v/v; used for experiments after b163 (nucleic acid)
chain 1: TTTCGTGCAGACCCTGCTCTT
chain 2: TTCCATAACACCTGTCTGGTT
chain 3: ATTCCTTCACGGCCAGTCCTT
modifications: morpholino mixture, chemistry not fully specified
notes: used for experiments after b163
- Inhibition of MGMT expression (Western blot) (MGMT [1]; H460 NSCLC cells, transfection agents, 6 μM and 15 μM, FIG. 1B): inhibition of MGMT expression
- Inhibition of MGMT expression (Western blot) (MGMT [1]; [5]): most effective in silencing MGMT expression
- Inhibition of MGMT expression (Western blot) (MGMT [1]; T98G cells, scrape-loading, FIG. 1A, SEQ ID NO: 2, and SEQ ID NO: 3): inhibition of MGMT expression
- Radiation dose required for best results (knockdown) (MGMT [2]; H460 and A549 cell lines): 6-12 Gy
- Inhibition of MGMT expression at lower doses of ionizing radiation (MGMT [2]; H460 and A549 cell lines, doses below 6-12 Gy): no inhibition
- Radiation dose at which knockdown could be achieved (MGMT [2]; T98G cell lines): 1 Gy
- Inhibition of MGMT expression (Western blot) (MGMT [2]; T98G cells, 24 hours after exposure to the dose of radiation indicated, FIG. 2C): inhibition of MGMT
- Inhibition of MGMT expression (Western blot) (MGMT [2]; T98G cells, AMON one hour after 1 Gy ionizing radiation, lysates 3 and 7 days, FIG. 2A, SEQ ID NO: 2, and SEQ ID NO: 3): inhibition of MGMT
- Inhibition of MGMT expression (Western blot) (MGMT [2]; T98G cells, AMON one hour after 1 Gy ionizing radiation, lysates 3 and 7 days, FIG. 2A, listed as combination of sequences 1, 2 and 3): most effective at inhibiting MGMT expression
- Time of exposure to AMON after radiation that gave the best inhibition (MGMT [2]; T98G cells, tested 2 h and 1 h before, 1 and 24 h after radiation): 24 h
- Inhibition of MGMT expression (Western blot) (MGMT [2]; T98G cells, treated before or after exposure to 1 Gy radiation, FIG. 2B): inhibition of MGMT
- Susceptibility of cells to temozolamide (phosphorylated-p53, caspase 3) (T98G cells): susceptible to temozolomide
- Susceptibility of cells to temozolamide (phosphorylated-p53, caspase 3) (T98G cells; listed as morpholino oligonucleotides of SEQ ID NO: 1, SEQ ID NO: 2, and SEQ ID NO: 3): enhanced cytotoxic effects of temozolamide
- Inhibition of MGMT expression in tumors (Western blot) (MGMT [3]; H460 subcutaneous control tumors, systemic AMON but no radiation): not seen
- Inhibition of MGMT expression in tumors (Western blot) (MGMT [3]; H460 subcutaneous tumors, 5 Gy to tumor 24 hours before iv AMON, harvested 3 days after): inhibition of MGMT expression was achieved
- Inhibition of MGMT expression in tumors (Western blot) (MGMT [3]; H460 subcutaneous tumors, 5 Gy to tumor 24 hours before iv AMON, harvested 3 days after, listed as combination of morpholino oligonucleotides of SEQ ID NO: 1, SEQ ID NO: 2, and SE): inhibition of MGMT expression
- Changes in MGMT-gene methylation status (MGMT gene): No significant changes
